# Biological target: Fluorescently labeled ATS (intracellular segment) of PfEMP1 variant PF08_0141, full-length segment (P. falciparum)
# Assay: fluorescence polarisation
substance,measurement,value
PFE1605w PHIST domain (residues 122–335) (domain or fragment),Kd,5 µM

# From PMC4202109
